The star is where a group is joined. BODIPY(FL) = CC1=CC(C)=[N+]2C1=Cc1ccc(CCC(=O)*)n1[B-]2(F)F; AOMK = acyloxymethyl ketone C-terminal warhead; alkyne = not defined here
Experiments:
cathepsin B = cathepsin B (Homo sapiens, UniProt P07858); test: Labeling with diagnostic inhibitor in cell extracts (gel-based, fluorescence scan): about 30 kDa cathepsin B band; set-up: endogenous in cells; host or cells: Jurkat T cells; HBL1 and other DLBCL cell lines; conditions: Jurkat T cells, whole cell extract
Method: (§1) Jurkat T cells were cultured in standard RPMI medium containing 10% FCS, 100 U/ml Penicillin/Streptomycin and 2 mM Glutamin. DNA transfection of 6 μg DNA in 8×10^6 Jurkat T cells was performed by electroporation in a GenePulser Xcell (BioRad) with a 220 Volt pulse. For siRNA experiments, Jurkat T cells were transfected with 100 nM siRNA and Atufect transfection reagent (Silence Therapeutics, Berlin). Jurkat T cells were stimulated either with 200 ng/ml PMA (phorbol 12-myristate 13-acetate) and 300 ng/ml Ionomycin (both Calbiochem) or CD3/CD28 antibody co-ligation (human CD3: 1 μg/ml; human CD28: 4 μg/ml; mouse IgG1: 2 μg/ml; mouse IgG2a: 2 μg/ml; BD Biosciences). DLBCL cell lines (HBL1, TMD8, OCI-Ly3, U2932, RIVA, BJAB, Su-DHL-4 and Su-DHL-6) were cultured in standard RPMI medium containing 20% FCS, 100 U/ml Penicillin/Streptomycin and 2 mM Glutamin. OCI-Ly10 cell line was cultured in IMDM containing 20% human serum, 100 U/ml Penicillin/Streptomycin, 2 U/ml heparine, 50 μM β-mercaptoethanol. Inhibitors 10 μM (z-VRPR-FMK, Mepazine, Thioridazine, CA-074Me) were added to the cells in media for 1 h, prior to stimulation and labeling with diagnostic MALT1 inhibitor.
(§2) Jurkat T cells (1-2×10^7), primary human PBMCs or primary human T cells (0.25 or 1×10^7) were lysed in 150 μl co-IP buffer without protease inhibitors. DLBCL (3×10^7) were lysed in 250 μl buffer. After centrifugation (14000 rpm, 10 min, 4° C.), 100 μl extract (DLBCL: 200 μl) was stained with probe 5 or probe 6 (3 μM end) for 50 min at 29° C., mixed with 4× loading dye and boiled.

active MALT1 [1] = target: T1, active MALT1 (Homo sapiens, UniProt Q9UDY8); test: Labeling with diagnostic inhibitor in cell extracts (gel-based, fluorescence scan): active MALT1 band; conditions: 2×10^6 primary human T cells, 3 μM probe
T1 construct: endogenous in cells; host or cells: Jurkat T cells, primary human PBMCs and T cells, DLBCL cell lines (HBL1, TMD8, OCI-Ly3, OCI-Ly10, U2932, RIVA, BJAB, Su-DHL-4, Su-DHL-6)
T1 sequence (Q9UDY8 1-824): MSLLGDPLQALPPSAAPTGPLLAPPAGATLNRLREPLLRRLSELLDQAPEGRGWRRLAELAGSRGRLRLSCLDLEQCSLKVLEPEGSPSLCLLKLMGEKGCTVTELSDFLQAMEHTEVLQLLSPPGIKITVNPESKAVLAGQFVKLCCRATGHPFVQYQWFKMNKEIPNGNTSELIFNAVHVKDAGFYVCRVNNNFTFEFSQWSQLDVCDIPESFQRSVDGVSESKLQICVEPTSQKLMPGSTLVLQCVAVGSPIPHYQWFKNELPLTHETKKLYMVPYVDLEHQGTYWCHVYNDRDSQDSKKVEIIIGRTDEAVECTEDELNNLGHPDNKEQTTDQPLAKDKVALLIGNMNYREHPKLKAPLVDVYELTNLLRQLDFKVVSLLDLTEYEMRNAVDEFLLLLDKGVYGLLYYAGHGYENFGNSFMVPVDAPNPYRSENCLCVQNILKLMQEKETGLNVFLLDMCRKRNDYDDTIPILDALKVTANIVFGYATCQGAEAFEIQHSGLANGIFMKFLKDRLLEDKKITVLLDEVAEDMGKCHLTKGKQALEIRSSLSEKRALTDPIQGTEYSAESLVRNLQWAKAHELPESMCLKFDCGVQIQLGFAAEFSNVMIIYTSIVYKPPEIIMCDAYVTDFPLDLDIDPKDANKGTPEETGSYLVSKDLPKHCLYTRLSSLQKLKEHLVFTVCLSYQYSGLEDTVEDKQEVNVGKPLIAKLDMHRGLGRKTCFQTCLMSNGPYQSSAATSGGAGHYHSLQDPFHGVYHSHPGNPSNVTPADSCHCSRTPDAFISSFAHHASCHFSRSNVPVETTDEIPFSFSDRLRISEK

active MALT1 [2] = target: T1, active MALT1; test: as above
Method: as §1, §2

FLAG-MALT1 wt = target: T2, FLAG-MALT1 wt (Homo sapiens, UniProt Q9UDY8); test: Labeling with diagnostic MALT1 inhibitor after immunoprecipitation (gel-based, fluorescence scan); type: binding; conditions: probe pre-clicked to TAMRA, after FLAG immunoprecipitation in Jurkat T cells
T2 construct: expressed in transfected cells; host or cells: Jurkat T cells (pEF vector, electroporation)
T2 sequence (Q9UDY8 1-813 isoform Q9UDY8-2): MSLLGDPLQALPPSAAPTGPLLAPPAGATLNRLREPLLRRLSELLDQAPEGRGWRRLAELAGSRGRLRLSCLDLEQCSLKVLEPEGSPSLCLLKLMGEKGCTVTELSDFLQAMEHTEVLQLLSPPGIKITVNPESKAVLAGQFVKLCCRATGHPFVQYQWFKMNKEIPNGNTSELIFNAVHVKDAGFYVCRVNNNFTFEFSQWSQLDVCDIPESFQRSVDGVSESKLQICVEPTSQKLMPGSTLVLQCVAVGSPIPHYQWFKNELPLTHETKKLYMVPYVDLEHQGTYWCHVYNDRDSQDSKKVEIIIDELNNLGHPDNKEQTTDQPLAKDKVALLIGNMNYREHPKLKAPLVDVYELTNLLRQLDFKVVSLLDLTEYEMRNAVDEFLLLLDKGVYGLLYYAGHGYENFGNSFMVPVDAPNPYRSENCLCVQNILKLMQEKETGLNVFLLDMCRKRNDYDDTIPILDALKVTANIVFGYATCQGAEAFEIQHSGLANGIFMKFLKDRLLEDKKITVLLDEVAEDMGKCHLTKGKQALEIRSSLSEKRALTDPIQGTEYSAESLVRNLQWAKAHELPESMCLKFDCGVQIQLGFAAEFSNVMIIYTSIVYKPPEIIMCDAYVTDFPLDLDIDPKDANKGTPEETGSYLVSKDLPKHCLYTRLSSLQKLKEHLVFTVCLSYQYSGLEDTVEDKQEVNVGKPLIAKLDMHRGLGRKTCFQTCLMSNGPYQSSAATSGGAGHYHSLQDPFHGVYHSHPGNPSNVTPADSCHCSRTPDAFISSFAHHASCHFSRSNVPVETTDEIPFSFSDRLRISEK
Method: Jurkat T cells, transfected with active FLAG-[…] wt or active site mutant C464A, were stained after lysis and IP with probe 2, pre-clicked to TAMRA. Analysis was done by fluorescence staining.
Copper I-catalysed click chemistry reaction was performed in 50 μl 50 mM hepes with 10 μM alkyne-LRSR-AOMK (probe 2) and 10 μM N-TAMRA-3-aminopropylazide or 100 μM N-FITC-3-aminopropylazide. Reducing agent sodium ascorbate (0.5 mM), TBTA (50 μM) and CuSO4 (1 mM) were added to the reaction and incubated for 45 min at RT.
Cells were lysed in 500 μl co-IP buffer without protease inhibitors (25 mM hepes pH 7.5, 150 mM NaCl, 0.2% NP-40, 10% glycerol, 1 mM DTT, 10 mM sodium fluoride, 8 mM (3-glycerophosphate and 300 μM sodium vanadate), centrifuged (14000 rpm, 10 min, 4° C.) and overexpressed FLAG MALT1 was immunoprecipitated by FLAG (M2) antibody for 3 hours at 4° C. PGS was added for 1 h at 4° C., precipitate was washed 2× with co-IP buffer and 1× with 50 mM hepes pH 7.4. Precipitated MALT1 was incubated with 0.3 μM pre-clicked probe 2 (in 20 μl 50 mM hepes pH 7.4) for 50 min at 29° C., mixed with 4× loading dye and boiled for 3 min. After protein separation by SDS PAGE, staining with diagnostic inhibitor was detected by Typhoon Fluorescence Scanner (FITC laser 488 nm/filter 526 SP; TAMRA laser 532 nm/filter 580 BP).

Substance | cathepsin B labeling compared with probe 5 (cathepsin B) | active MALT1 signal in primary human T cells, gel-based (active MALT1 [1]) | active MALT1 signal in lymphoma whole cell extracts (active MALT1 [2]; ABC DLBCL cells (HBL1 for probe 6)) | active MALT1 labeling compared with probe 5 (active MALT1 [2]; Jurkat T cells, whole cell extract) | MALT1-probe complex in ABC DLBCL cells (active MALT1 [2]; panel of ABC DLBCL pretreated with CA-074Me, whole cell lysates, no stimulation) | MALT1-probe labeling in GCB DLBCL cells (active MALT1 [2]; panel of GCB DLBCL pretreated with CA-074Me, whole cell lysates) | labeling of overexpressed FLAG-MALT1 wt versus catalytic inactive mutant (FLAG-MALT1 wt)
(BODIPY-FL)-LRSR-AOMK ({BODIPY(FL)}-LRSR-{AOMK}) [probe 6] | cathepsin B labeling was even reduced | weak active MALT1 signal | weakly labeled active MALT1 | slightly more effective in active MALT1 labeling | detected even in the absence of any stimulation | all negative | –
alkyne-LRSR-AOMK (alkyne-LRSR-{AOMK}; not fully specified; reading uncertain) [probe 2, used pre-clicked to TAMRA] | – | – | – | – | – | – | FLAG-MALT1 wt but not the catalytic inactive mutant was detected
